Data published in IntAct's records for PubMed 11113154.

What was measured:
[1] = biological target: bem1_yeast BEM1 (UniProt P29366)
[2] = biological target: bem1_yeast BEM1 (UniProt P29366); remark: listed apart in the source

bem1_yeast BEM1, sequence (P29366 whole entry): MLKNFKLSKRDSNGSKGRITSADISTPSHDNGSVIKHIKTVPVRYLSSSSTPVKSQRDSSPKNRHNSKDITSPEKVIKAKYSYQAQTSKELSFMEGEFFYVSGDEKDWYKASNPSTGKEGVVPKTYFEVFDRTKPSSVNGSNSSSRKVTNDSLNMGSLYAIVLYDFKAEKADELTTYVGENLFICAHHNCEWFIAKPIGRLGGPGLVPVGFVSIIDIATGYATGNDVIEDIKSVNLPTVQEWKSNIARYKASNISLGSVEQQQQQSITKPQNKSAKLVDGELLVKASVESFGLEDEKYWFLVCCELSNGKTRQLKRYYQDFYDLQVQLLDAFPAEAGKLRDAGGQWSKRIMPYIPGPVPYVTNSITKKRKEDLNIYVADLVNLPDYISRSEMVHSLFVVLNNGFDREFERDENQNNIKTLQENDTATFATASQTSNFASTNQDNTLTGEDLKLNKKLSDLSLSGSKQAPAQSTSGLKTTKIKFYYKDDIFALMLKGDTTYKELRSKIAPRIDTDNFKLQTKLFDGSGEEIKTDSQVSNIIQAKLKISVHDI
Cell division control protein 42 (Saccharomyces cerevisiae), P19073 Q61L, sequence (P19073 whole entry Q61L): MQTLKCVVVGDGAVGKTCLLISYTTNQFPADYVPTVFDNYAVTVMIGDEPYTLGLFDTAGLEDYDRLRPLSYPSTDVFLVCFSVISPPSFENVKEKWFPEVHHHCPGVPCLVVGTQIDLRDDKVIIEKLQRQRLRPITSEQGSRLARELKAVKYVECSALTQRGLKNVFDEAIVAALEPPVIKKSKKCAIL
Cell division control protein 42 (Saccharomyces cerevisiae), P19073 D57Y, sequence (P19073 whole entry D57Y): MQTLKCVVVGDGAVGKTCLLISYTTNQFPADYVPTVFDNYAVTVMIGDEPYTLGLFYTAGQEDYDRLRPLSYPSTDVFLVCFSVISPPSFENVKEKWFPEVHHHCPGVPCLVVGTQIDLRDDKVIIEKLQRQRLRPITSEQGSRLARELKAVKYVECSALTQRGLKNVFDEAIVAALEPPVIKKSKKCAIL

Substance | effect of a mutation on the interaction [1] | effect of a mutation on the interaction [2]
Cell division control protein 42 (Saccharomyces cerevisiae), P19073 D57Y | disrupting interaction strength | 
Cell division control protein 42 (Saccharomyces cerevisiae), P19073 Q61L |  | with no effect
